Publication PMC9726709, “Fluorescently tagged nanobodies and NanoBRET to study ligand-binding and agonist-induced conformational changes of full-length EGFR expressed in living cells” (Frontiers in Immunology, 2022)

Assays:
[1] = molecular target: T1, N-terminal NanoLuc-tagged EGFR (NLuc-EGFR) (human, UniProt P00533 25-1210); test: FRET or BRET; NanoBRET displacement of 3 nM EGF-AF488 by unlabelled EGFR ligands on living HEK293 cells expressing NLuc-EGFR; added simultaneously, 30 min at 37 °C; HBSS with 0.2% BSA; Ki from IC50 by Cheng-Prusoff; pKi is the negative log10; details: one partner purified
T1 construct: ORF from the Kazusa DNA Research Institute; NanoLuc fused to its N-terminus via a Gly-Ser-Ser-Gly linker; signal peptide of IL-6 before NanoLuc; Vector pNKF1-secN CMV; The abstract says HEK293T, the methods HEK293; also called full-length N-terminal nanoluciferase-EGFR; NanoLuc-EGFR; source: HEK293 cells, stably transfected, on living cells; not shown: NanoLuc, N-terminal, kept

[2] = molecular target: T1, N-terminal NanoLuc-tagged EGFR …; test: cell-based or functional assay
[3] = molecular target: T1, N-terminal NanoLuc-tagged EGFR …; details: one partner purified

pKi [1] | pEC50 for enhancement of the specific binding of 12.5 nM Q86c-HL488 (conformational sensor nanobody) to NLuc-EGFR, NanoBRET on HEK293 cells [2] | pIC50 [3] | Binder
8.45 | 9.17 | 9.02 | human recombinant betacellulin (ligand, UniProt P35070 32-111, looked up, Betacellulin, human, recombinant; also called BTC; source: bought: R&D Systems (261-CE-010)) DGNSTRSPETNGLLCGDPEENCAATTTQSKRKGHFSRCPKQYKHYCIKGRCRFVVAEQTPSCVCDEGYIGARCERVDLFY
8.43 | 9.2 | 8.8 | heparin binding EGF-like growth factor (ligand, UniProt Q99075 63-148, looked up, the other ligands are human recombinant proteins from R&D Systems; also called HB-EGF; Hb-EGF) DLQEADLDLLRVTLSSKPQALATPNKEEHGKRKKKGKGLGKKRDPCLRKYKDFCIHGECKYVKELRAPSCICHPGYHGERCHGLSL
